From US20250276092A1 (Regeneron, published 2025) come the findings set out here.

Test [1] has as its target T1, human CD40 expressed on cells (human, UniProt P25942 21-277). Put plainly: cell-based or functional assay.
For test [2], the target named is T1, human CD40 expressed on cells. Nature of the test: cell-based or functional assay. This is another data set of the same source.
The target is the same in test [3]. Nature of the test: cell-based or functional assay. This is another data set of the same source.
For test [4] the target is unchanged. Put plainly: cell-based or functional assay. The source holds these as a separate data set.
For test [5] the target is unchanged. Nature of the test: cell-based or functional assay. The source holds these as a separate data set.
Test [6] addresses T2, human CD40 extracellular domain expressed with a C-terminal myc-myc-hexahistidine tag (human).
T2 construct: also called hCD40-MMH; hCD40-mmH
Put plainly: BLI Octet, hCD40-MMH captured on anti-Penta-His tips. How it is done: Binding competition between different anti-CD40 monoclonal antibodies (mAbs) was determined using a real time, label-free bio-layer interferometry (BLI) assay on the Octet HTX biosensor platform (Pall ForteBio Corp.). In addition to parental antibodies 21519P2, 21520P2, and 30027P2, a comparator anti-CD40 antibody (REGN11209) was also tested; this comparator has the heavy chain and light chain sequences of iscalimab (see, U.S. Pat. No. 8,828,396). The entire experiment was performed at 25° C. in 10 mM HEPES buffer containing 150 mM NaCl, 3 mM EDTA, 1 mg/mL BSA, 0.02% NaN₃, and 0.05% v/v Surfactant Tween-20 at pH 7.4 (HBS-EP) with the plate shaking at a speed of 1000 rpm.
To assess the ability of one antibody to compete with another antibody for binding to CD40, around 0.47 nm-0.54 nm of recombinant human CD40 extracellular domain expressed with a C-terminal myc-myc-hexahistidine (hCD40-MMH; SEQ ID NO: 53) was first captured onto anti-Penta-His antibody coated Octet biosensor tips (Fortebio Inc, #18-5122) by submerging the biosensor tips in wells containing 10 μg/mL solution of the hCD40-MMH for 90 seconds. […] The real-time binding response was monitored and the binding response at the end of every step was recorded. […]
On the technique in general: Biolayer interferometry detects binding as a change in optical thickness at a sensor tip.

In test [7] the target is T1, human CD40 expressed on cells. Nature of the test: cell-based or functional assay. This is another data set of the same source.

T1 sequence (P25942 21-277): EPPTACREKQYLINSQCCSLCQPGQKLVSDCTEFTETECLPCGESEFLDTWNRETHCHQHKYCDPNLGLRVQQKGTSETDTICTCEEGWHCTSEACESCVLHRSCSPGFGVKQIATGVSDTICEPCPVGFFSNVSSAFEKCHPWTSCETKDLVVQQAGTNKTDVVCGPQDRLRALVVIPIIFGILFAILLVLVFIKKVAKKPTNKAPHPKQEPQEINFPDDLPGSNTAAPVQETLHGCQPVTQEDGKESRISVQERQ
T2 sequence (chain, as listed by the source limits assumed): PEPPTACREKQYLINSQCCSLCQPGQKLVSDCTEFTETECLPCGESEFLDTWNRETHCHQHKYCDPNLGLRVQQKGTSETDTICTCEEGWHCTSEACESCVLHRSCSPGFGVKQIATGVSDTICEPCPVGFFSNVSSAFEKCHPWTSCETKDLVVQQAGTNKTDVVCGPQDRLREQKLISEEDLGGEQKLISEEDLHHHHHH

B1: REGN11209 (comparator anti-CD40 antibody with the heavy chain and light chain sequences of iscalimab) (antibody, human IgG1, kappa, N297A, V domains shown)
VH: QVQLVESGGGVVQPGRSLRLSCAASGFTFSSYGMHWVRQAPGKGLEWVAVISYEESNRYHADSVKGRFTISRDNSKITLYLQMNSLRTEDTAVYYCARDGGIAAPGPDYWGQGTLVTVSS
VL: DIVMTQSPLSLTVTPGEPASISCRSSQSLLYSNGYNYLDWYLQKPGQSPQVLISLGSNRASGVPDRFSGSGSGTDFTLKISRVEAEDVGVYYCMQARQTPFTFGPGTKVDIRR
notes: also called COMP11209; CFZ533
As for B1, in test [1], the “% max blockade relative to no mAb, TNFa, B cells, donor 1” value was found to be 53.9%; the “% max blockade relative to no mAb, TNFa, B cells, donor 2” value turned out to be 71.4%; the “% max blockade relative to no mAb, TNFa, B cells, donor 3” value came to 73.9%. Besides, in test [2], the “% max blockade relative to no mAb, TNFa, assay #2, donor 1” value worked out at 62% and the “% max blockade relative to no mAb, TNFa, assay #2, donor 2” value amounted to 50.6%. For the same molecule, in test [3], the “% max blockade relative to no mAb, IL-6, B cells, donor 1” value worked out at 84.2%; the “% max blockade relative to no mAb, IL-6, B cells, donor 2” value was determined as 91.3%; the “% max blockade relative to no mAb, IL-6, B cells, donor 3” value was 91.3%. Also, in test [4], the “% max blockade relative to no mAb, IL-6, assay #2, donor 1” value was 88.6% and the “% max blockade relative to no mAb, IL-6, assay #2, donor 2” value is 88.3%. Further, in test [5], the “% max blockade relative to no mAb, IL-10, assay #2, donor 1” value amounted to 88.1% and the “% max blockade relative to no mAb, IL-10, assay #2, donor 2” value was found to be 90.5%. For the same molecule, the binding result in test [6] is listed as “binds”. In addition, in test [7], the “% max blockade relative to no mAb, IL-10, B cells, donor 1” value amounted to 84.1%; the “% max blockade relative to no mAb, IL-10, B cells, donor 2” value stood at 91.7%; the “% max blockade relative to no mAb, IL-10, B cells, donor 3” value was 91.4%.
